# From the supplement of paper PMC7877785
# ± gives the uncertainty stated by the source.
# Assay: self-splicing fitness, log relative to wild type (ln ratio); higher = more splicing; Tetrahymena group I intron in knt gene, E. coli kanamycin selection, DiMSum; sequences stand for … in CUCUCU…GGAGGGAAAAGUUAUCAGGCAUGCACCUGGUAGCUAGUCUUUAAACCAAUAGAUUGCAUCGGUUUAAAAGGCAAGACCGUCAAAUUGCGGGAAAGGGGUCAACAGCCGUUCAGUACCAAGUCUCAGGGGAAACUUUGAGAUGGCCUUGCAAAGGGUAUGGUAAUAAGCUGACGGACAUGGUCCUAACCACGCAGCCAAGUCCUAAGUCAACAGAUCUUCUGUUGAUAUGGAUGCAGUUCACAGACUAAAUGUCGGUCGGGGAAGAUGUAUUCUUCUCAUAAGAUAUAGUCGGACCUCUCCUUAAUGGGAGCUAGCGGAUGAAGUGAUGCAACACUGGAGCCGCUGGGAACUAAUUUGUAUGCGAAAGUAUAUUGAUUAGUUUUGGAGUACUCGUGGUCG
# Method in brief: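 DiMSum derived fitness as the error-weighted combination of fold changes across replicates, kanamycin versus no kanamycin, normalised to wild type. E. coli BL21(DE3) held the library, which randomised all eight P1ex-region intron nucleotides within the knt kanamycin-resistance gene on pET-22b(+). Six replicate transformations grew overnight at 37°C or 30°C on LB agar with or without 25 μg/mL kanamycin, also containing 100 μg/mL carbenicillin, 50 μM IPTG and 0.2% rhamnose, and pooled colonies were amplicon-sequenced on an Illumina HiSeq 2500.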
Sequence,self-splicing fitness (ln) (30 °C),self-splicing fitness (ln) (37 °C)
UCAUAGCAAUAUUACGCGCG,-0.405 ± 0.3,-0.412 ± 0.21
UCAUAGCAAUAUUACGCGCU,-3.22 ± 0.42,
UCAUAGCAAUAUUACGCGUA,-1.44 ± 0.09,-0.884 ± 0.08
UCAUAGCAAUAUUACGCUUG,-1.97 ± 0.15,-2 ± 0.19
UCAUAGCAAUAUUACGGAGU,-3.88 ± 0.34,-2.86 ± 0.25
UCAUAGCAAUAUUACGGAUG,-2.58 ± 0.21,-2.07 ± 0.21
UCAUAGCAAUAUUACGUAUU,-2.48 ± 0.22,-2.85 ± 0.27
UCAUAGCAAUAUUACGUCCG,0.46 ± 0.24,-1.67 ± 0.29
UCAUAGCAAUAUUACGUGGG,-3.39 ± 0.16,-1.75 ± 0.098
UCAUAGCAAUAUUACGUUAC,-3.58 ± 0.29,-3.01 ± 0.33
UCAUAGCAAUAUUACGUUUC,-3.79 ± 0.43,-1.72 ± 0.23
UCCAAGCAAUAUUACGAAAA,-2.15 ± 0.18,-0.93 ± 0.12
UCCAAGCAAUAUUACGAAGG,-1.32 ± 0.11,-0.206 ± 0.15
UCCAAGCAAUAUUACGAGAU,-3.54 ± 0.18,
UCCAAGCAAUAUUACGAGGA,-2.7 ± 0.2,-2.3 ± 0.23
UCCAAGCAAUAUUACGAUCC,,-0.628 ± 0.48
UCCAAGCAAUAUUACGAUUU,-3.72 ± 0.26,-2.71 ± 0.28
UCCAAGCAAUAUUACGCCCA,-0.733 ± 0.14,-1.07 ± 0.21
UCCAAGCAAUAUUACGCGUC,-3.21 ± 0.1,-2.63 ± 0.11
UCCAAGCAAUAUUACGCUAG,-3.67 ± 0.32,-3.6 ± 0.35
UCCAAGCAAUAUUACGGAAC,,-3.52 ± 0.35
UCCAAGCAAUAUUACGGACA,-2.37 ± 0.11,-0.757 ± 0.084
UCCAAGCAAUAUUACGGCAA,-0.817 ± 0.095,-0.0878 ± 0.095
UCCAAGCAAUAUUACGGCGG,-1.42 ± 0.079,-0.773 ± 0.092
UCCAAGCAAUAUUACGGGAA,-1.07 ± 0.078,-0.547 ± 0.079

Sequence,self-splicing fitness (ln) (30 °C),self-splicing fitness (ln) (37 °C)
UCCAAGCAAUAUUACGGGGC,-4.07 ± 0.23,-3.13 ± 0.2
UCCAAGCAAUAUUACGGUAC,-4.3 ± 0.23,-2.81 ± 0.24
UCCAAGCAAUAUUACGGUCA,-0.259 ± 0.06,0.0746 ± 0.065
UCCAAGCAAUAUUACGUGAA,-0.666 ± 0.074,0.295 ± 0.1
UCCAAGCAAUAUUACGUGAU,-3.53 ± 0.12,-1.31 ± 0.097
UCCAAGCAAUAUUACGUGCG,-3.59 ± 0.15,-1.68 ± 0.13
UCCAAGCAAUAUUACGUGUU,-3.46 ± 0.15,-1.85 ± 0.13
UCCAAGCAAUAUUACGUUGC,-3.7 ± 0.17,-2.41 ± 0.19
UCCCAGCAAUAUUACGACCU,-2.88 ± 0.27,-1.69 ± 0.35
UCCCAGCAAUAUUACGACGC,-2.81 ± 0.19,-0.519 ± 0.23
UCCCAGCAAUAUUACGACUU,-3.04 ± 0.17,-1.79 ± 0.14
UCCCAGCAAUAUUACGAUGG,-3.71 ± 0.13,-2.31 ± 0.15
UCCCAGCAAUAUUACGCAAA,-2.54 ± 0.18,-0.641 ± 0.14
UCCCAGCAAUAUUACGCAAC,-3.01 ± 0.37,-2.19 ± 0.37
UCCCAGCAAUAUUACGCUCG,-2.99 ± 0.18,-2.15 ± 0.29
UCCCAGCAAUAUUACGGCAG,-4.36 ± 0.29,-2.58 ± 0.2
UCCCAGCAAUAUUACGGCGU,-0.605 ± 0.057,0.275 ± 0.071
UCCCAGCAAUAUUACGGGCU,-1.71 ± 0.066,-1.32 ± 0.087
UCCCAGCAAUAUUACGGGGA,-3.53 ± 0.17,-2.43 ± 0.16
UCCCAGCAAUAUUACGGGGC,-2.72 ± 0.17,-2.84 ± 0.22
UCCCAGCAAUAUUACGGUAA,0.0812 ± 0.099,0.262 ± 0.1
UCCCAGCAAUAUUACGGUGG,-3.65 ± 0.15,-2.5 ± 0.15
UCCCAGCAAUAUUACGUGAA,0.116 ± 0.045,0.582 ± 0.067
UCCCAGCAAUAUUACGUGGC,-3.54 ± 0.15,-2.92 ± 0.23
UCCCAGCAAUAUUACGUUAA,-1.89 ± 0.093,-0.696 ± 0.085

Sequence,self-splicing fitness (ln) (30 °C),self-splicing fitness (ln) (37 °C)
UCCCAGCAAUAUUACGUUAU,-4.35 ± 0.18,-2.47 ± 0.17
UCCCAGCAAUAUUACGUUCA,-0.991 ± 0.093,-0.824 ± 0.1
UCCGAGCAAUAUUACGAGGA,-3.04 ± 0.25,-2.5 ± 0.29
UCCGAGCAAUAUUACGAUGA,-0.4 ± 0.068,-0.0382 ± 0.079
UCCGAGCAAUAUUACGAUGC,-1.93 ± 0.19,
UCCGAGCAAUAUUACGCCCU,-2.74 ± 0.31,
UCCGAGCAAUAUUACGCGCC,-2.88 ± 0.4,
UCCGAGCAAUAUUACGGAAG,-3.67 ± 0.44,-1.82 ± 0.28
UCCGAGCAAUAUUACGGAGC,-3.17 ± 0.25,-2.67 ± 0.26
UCCGAGCAAUAUUACGGAUA,-2.34 ± 0.25,-2.61 ± 0.19
UCCGAGCAAUAUUACGGAUC,,-2.41 ± 0.39
UCCGAGCAAUAUUACGGCGU,-1.17 ± 0.081,-0.438 ± 0.11
UCCGAGCAAUAUUACGGGCU,-4.07 ± 0.24,-2.97 ± 0.2
UCCGAGCAAUAUUACGGUAG,-3.6 ± 0.14,-2.43 ± 0.15
UCCGAGCAAUAUUACGGUUU,-3.42 ± 0.22,-1.02 ± 0.14
UCCGAGCAAUAUUACGUAAG,-4.92 ± 0.38,-2.13 ± 0.25
UCCGAGCAAUAUUACGUCAU,-3.59 ± 0.27,-2.75 ± 0.44
UCCGAGCAAUAUUACGUGAG,-2.83 ± 0.19,-2.43 ± 0.23
UCCGAGCAAUAUUACGUUGU,-2.89 ± 0.14,-2.96 ± 0.22
UCCUAGCAAUAUUACGAAUC,,-2.17 ± 0.29
UCCUAGCAAUAUUACGACCG,-3.3 ± 0.28,-3.65 ± 0.34
UCCUAGCAAUAUUACGACUU,-3.74 ± 0.46,-2.74 ± 0.3
UCCUAGCAAUAUUACGAGAA,-1.36 ± 0.25,-0.965 ± 0.23
UCCUAGCAAUAUUACGAGAC,-2.09 ± 0.33,-1.71 ± 0.4
UCCUAGCAAUAUUACGAGGU,-3.53 ± 0.19,-1.45 ± 0.13

Sequence,self-splicing fitness (ln) (30 °C),self-splicing fitness (ln) (37 °C)
UCCUAGCAAUAUUACGAGUC,-2.71 ± 0.31,
UCCUAGCAAUAUUACGAUCA,-2.01 ± 0.1,-1.36 ± 0.096
UCCUAGCAAUAUUACGAUGA,0.139 ± 0.083,0.437 ± 0.098
UCCUAGCAAUAUUACGCAGC,,-0.949 ± 0.4
UCCUAGCAAUAUUACGCAUG,-2.52 ± 0.28,
UCCUAGCAAUAUUACGCGAU,-3.18 ± 0.28,-2.65 ± 0.5
UCCUAGCAAUAUUACGCGCG,-4.03 ± 0.29,-2.45 ± 0.31
UCCUAGCAAUAUUACGCGUA,-2.95 ± 0.23,-1.53 ± 0.14
UCCUAGCAAUAUUACGCUGG,-3.84 ± 0.42,-2.29 ± 0.32
UCCUAGCAAUAUUACGGAGG,-2.63 ± 0.17,-1.73 ± 0.2
UCCUAGCAAUAUUACGGAUC,-3.39 ± 0.23,-2.53 ± 0.26
UCCUAGCAAUAUUACGGAUU,-4.22 ± 0.23,-2.36 ± 0.21
UCCUAGCAAUAUUACGGCGG,-3.94 ± 0.27,-2.92 ± 0.2
UCCUAGCAAUAUUACGGGCC,-2.79 ± 0.12,-1.17 ± 0.11
UCCUAGCAAUAUUACGGUGG,-3.31 ± 0.15,-2.32 ± 0.13
UCCUAGCAAUAUUACGUAAC,-3.53 ± 0.24,-2.07 ± 0.27
UCCUAGCAAUAUUACGUAGU,-2.62 ± 0.15,-1.29 ± 0.18
UCCUAGCAAUAUUACGUAUG,-4.13 ± 0.3,-2.62 ± 0.26
UCCUAGCAAUAUUACGUCAA,,-1.52 ± 0.39
UCCUAGCAAUAUUACGUCGC,-4.08 ± 0.42,-2.58 ± 0.36
UCGAAGCAAUAUUACGACCU,-1.51 ± 0.16,-1.1 ± 0.18
UCGAAGCAAUAUUACGACUC,,0.412 ± 0.47
UCGAAGCAAUAUUACGAUAG,-2.95 ± 0.25,-1.14 ± 0.18
UCGAAGCAAUAUUACGAUGG,-0.763 ± 0.079,-0.538 ± 0.13
UCGAAGCAAUAUUACGCAAU,,-2.03 ± 0.27
